The values that follow are results of earlier work, collected in publication PMC4976356, “Structural insight into β-Clamp and its interaction with DNA Ligase in Helicobacter pylori” (Scientific Reports, 2016).

The data set relates to Ecβ-clamp.

B1: ligase from E. coli: E. coli DNA ligase examined for interaction with Ecβ-clamp (ref 10) (protein, UniProt P15042 1-671, looked up)
DNA ligase: MESIEQQLTELRTTLRHHEYLYHVMDAPEIPDAEYDRLMRELRELETKHPELITPDSPTQRVGAAPLAAFSQIRHEVPMLSLDNVFDEESFLAFNKRVQDRLKNNEKVTWCCELKLDGLAVSILYENGVLVSAATRGDGTTGEDITSNVRTIRAIPLKLHGENIPARLEVRGEVFLPQAGFEKINEDARRTGGKVFANPRNAAAGSLRQLDPRITAKRPLTFFCYGVGVLEGGELPDTHLGRLLQFKKWGLPVSDRVTLCESAEEVLAFYHKVEEDRPTLGFDIDGVVIKVNSLAQQEQLGFVARAPRWAVAFKFPAQEQMTFVRDVEFQVGRTGAITPVARLEPVHVAGVLVSNATLHNADEIERLGLRIGDKVVIRRAGDVIPQVVNVVLSERPEDTREVVFPTHCPVCGSDVERVEGEAVARCTGGLICGAQRKESLKHFVSRRAMDVDGMGDKIIDQLVEKEYVHTPADLFKLTAGKLTGLERMGPKSAQNVVNALEKAKETTFARFLYALGIREVGEATAAGLAAYFGTLEALEAASIEELQKVPDVGIVVASHVHNFFAEESNRNVISELLAEGVHWPAPIVINAEEIDSPFAGKTVVLTGSLSQMSRDDAKARLVELGAKVAGSVSKKTDLVIAGEAAGSKLAKAQELGIEVIDEAEMLRLLGS
As for B1, the “interaction with E. coli β-clamp (in words)” value is “interacts with its β-clamp”.
